From paper PMC6114939

Assays:
p85α [1] = target: p85α (UniProt P27986); experiment: co-immunoprecipitation, immunoblot; settings: sites Y64
p85α [2] = target: p85α (UniProt P27986); experiment: His beads pull-down after kinase assay; settings: reference: WT His-PFKP with GST-EGFR; sites Y64

## PFKP (platelet isoform of phosphofructokinase 1) (from UniProt Q01813) Flag-rPFKP Y64F
p85α [1]; reference: WT Flag-rPFKP
  binding against the reference: lost

## PFKP (platelet isoform of phosphofructokinase 1) (from UniProt Q01813) His-PFKP Y64F with GST-EGFR
p85α [2]
  binding against the reference: lost

## PFKP (platelet isoform of phosphofructokinase 1) (from UniProt Q01813) Y64F
p85α [1]; reference: wild-type tagged PFKP (presumed)
  binding against the reference: lost
